27 molecules from US11198713B2, “Agents modulating beta-catenin functions and methods thereof” (FOG PHARMACEUTICALS, INC., priority 2017, dated 2021) can be followed below.

Numbered stars: 1 amine (or outer) side, 2 acyl side, 3 side chain; on linkers, the order of the positions; unused ones are H or OH. Bridge positions count the residues as written; N and C are the ends. Square brackets hold non-standard residues; d marks the D form. Primed or numbered codes have the meaning given here. MB(4) = Monomer B (PyrS), N-Alloc pyrrolidine stapling residue, (S)-3-amino-1-(allyloxycarbonyl)pyrrolidine-3-carboxylic acid, C=CCOC(=O)N1CC[C@@](N[*:1])(C(=O)[*:2])C1; MB(6) = Monomer B (PyrS), N-Alloc pyrrolidine stapling residue, forms carbamate staple with R8 by olefin metathesis; Tyr(OMe) = O-methyl tyrosine (source code MeY), COc1ccc(C[C@H](N[*:1])C(=O)[*:2])cc1; MB(13) = Monomer B (PyrS), pyrrolidine stapling residue bearing Alloc; MB(5) = Monomer B (PyrS), N-Alloc pyrrolidine stapling residue; Ala(2-furyl) = N[C@@H](Cc1ccco1)C(=O)O; Phe(4-F) = N[C@@H](Cc1ccc(F)cc1)C(=O)O; Phe(4-Me) = Cc1ccc(C[C@H](N)C(=O)O)cc1; 1Nal = N[C@@H](Cc1cccc2ccccc12)C(=O)O; Ala(cPr) = N[C@@H](CC1CC1)C(=O)O; 2Pal = N[C@@H](Cc1ccccn1)C(=O)O; 3Pal = N[C@@H](Cc1cccnc1)C(=O)O; 4Pal = N[C@@H](Cc1ccncc1)C(=O)O; R8 = C=CCCCCCC[C@@](C)(N)C(=O)O; 2Thi = N[C@@H](Cc1cccs1)C(=O)O; Tle = CC(C)(C)[C@H](N)C(=O)O; cpa = 3-cyclopropylalanine; Nva = CCC[C@H](N)C(=O)O; Aib = CC(C)(N)C(=O)O

First the molecules themselves.
T1: full-length beta-catenin (UniProt P35222 2-781, limits assumed)
T1 construct: mature; also called full-length ß-Catenin; β-catenin
T1 sequence (looked up): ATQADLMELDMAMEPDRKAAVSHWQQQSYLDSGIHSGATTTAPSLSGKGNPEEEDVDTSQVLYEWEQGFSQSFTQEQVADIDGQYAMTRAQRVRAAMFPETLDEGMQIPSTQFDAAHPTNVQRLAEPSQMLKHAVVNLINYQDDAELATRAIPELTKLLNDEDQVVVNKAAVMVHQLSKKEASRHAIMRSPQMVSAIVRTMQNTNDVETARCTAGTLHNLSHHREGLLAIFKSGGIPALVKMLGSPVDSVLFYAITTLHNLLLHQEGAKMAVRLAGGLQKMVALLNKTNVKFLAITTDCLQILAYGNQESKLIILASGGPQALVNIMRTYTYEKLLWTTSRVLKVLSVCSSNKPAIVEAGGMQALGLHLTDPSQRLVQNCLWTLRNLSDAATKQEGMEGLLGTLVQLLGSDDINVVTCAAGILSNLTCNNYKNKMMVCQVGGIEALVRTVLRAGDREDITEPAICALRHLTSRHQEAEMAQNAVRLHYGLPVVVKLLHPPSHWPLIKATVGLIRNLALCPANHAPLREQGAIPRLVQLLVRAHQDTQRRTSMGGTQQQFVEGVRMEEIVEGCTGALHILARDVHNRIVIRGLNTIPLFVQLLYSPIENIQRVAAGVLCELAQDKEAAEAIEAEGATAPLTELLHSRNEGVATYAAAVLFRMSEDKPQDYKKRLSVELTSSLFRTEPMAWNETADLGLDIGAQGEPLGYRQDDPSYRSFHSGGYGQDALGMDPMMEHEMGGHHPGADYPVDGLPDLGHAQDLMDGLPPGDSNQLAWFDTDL

B1: FP0570c Isomer 2 (peptide)
peptide: Ac-A[R8]ILDA[2Pal]I[MB(6)][Aib]VW-NH2
modifications: staple 2-9; not fully specified; printed as Ac-A-R8-I-L-D-A-2pyr-I-MB-Aib-V-W-NH2
B2: FP0577c Isomer 1 (peptide)
peptide: Ac-A[R8]ILDA[2Pal]I[MB(4)][1Nal]VW-NH2
modifications: staple 2-9; not fully specified; printed as Ac-A-R8-I-L-D-A-2pyr-I-MB-1NapA-V-W-NH2
B3: FP0569c Isomer 2 (peptide)
peptide: Ac-A[R8]ILDA[2Pal]I[MB(6)][Ala(2-furyl)]VW-NH2
modifications: staple 2-9; not fully specified; printed as Ac-A-R8-I-L-D-A-2pyr-I-MB-fur-V-W-NH2
B4: FP0578c Isomer 2 (peptide)
peptide: Ac-A[R8]ILDA[2Pal]I[MB(4)][Phe(4-Me)]VW-NH2
modifications: staple 2-9; not fully specified; printed as Ac-A-R8-I-L-D-A-2pyr-I-MB-4MeF-V-W-NH2
B5: FP0572c Isomer 1 (peptide)
peptide: Ac-A[R8]ILDA[2Pal]I[MB(5)][2Pal]VW-NH2
modifications: staple 2-9; not fully specified; printed as Ac-A-R8-I-L-D-A-2pyr-I-MB-2pyr-V-W-NH2
B6: FP0567c Isomer 2 (peptide)
peptide: Ac-A[R8]ILDA[2Pal]I[MB(6)][Nva]VW-NH2
modifications: staple 2-9; not fully specified; printed as Ac-A-R8-I-L-D-A-2pyr-I-MB-Nva-V-W-NH2
B7: FP0573c Isomer 2 (peptide)
peptide: Ac-A[R8]ILDA[2Pal]I[MB(5)][3Pal]VW-NH2
modifications: staple 2-9; not fully specified; printed as Ac-A-R8-I-L-D-A-2pyr-I-MB-3pyr-V-W-NH2
B8: FP0573c Isomer 1 (peptide)
peptide: Ac-A[R8]ILDA[2Pal]I[MB(5)][3Pal]VW-NH2
modifications: staple 2-9; not fully specified; printed as Ac-A-R8-I-L-D-A-2pyr-I-MB-3pyr-V-W-NH2
B9: FP0568c Isomer 1 (peptide)
peptide: Ac-A[R8]ILDA[2Pal]I[MB(6)][Tle]VW-NH2
modifications: staple 2-9; not fully specified; printed as Ac-A-R8-I-L-D-A-2pyr-I-MB-tLeu-V-W-NH2
B10: FP0575c Isomer 2 (peptide)
peptide: Ac-A[R8]ILDA[2Pal]I[MB(4)][Tyr(OMe)]VW-NH2
modifications: staple 2-9; not fully specified; printed as Ac-A-R8-I-L-D-A-2pyr-I-MB-MeY-V-W-NH2
B11: FP0574c Isomer 2 (peptide)
peptide: Ac-A[R8]ILDA[2Pal]I[MB(4)][cpa]VW-NH2
modifications: staple 2-9; not fully specified; printed as Ac-A-R8-I-L-D-A-2pyr-I-MB-cpa-V-W-NH2
B12: FP0571c Isomer 1 (peptide)
peptide: Ac-A[R8]ILDA[2Pal]I[MB(6)][2Thi]VW-NH2
modifications: staple 2-9; not fully specified; printed as Ac-A-R8-I-L-D-A-2pyr-I-MB-thi-V-W-NH2
B13: FP0574c Isomer 1 (peptide)
peptide: Ac-A[R8]ILDA[2Pal]I[MB(5)][Ala(cPr)]VW-NH2
modifications: staple 2-9; not fully specified; printed as Ac-A-R8-I-L-D-A-2pyr-I-MB-cpa-V-W-NH2
B14: FP0578c Isomer 1 (peptide)
peptide: Ac-A[R8]ILDA[2Pal]I[MB(4)][Phe(4-Me)]VW-NH2
modifications: staple 2-9; not fully specified; printed as Ac-A-R8-I-L-D-A-2pyr-I-MB-4MeF-V-W-NH2
B15: FP0575c Isomer 1 (peptide)
peptide: Ac-A[R8]ILDA[2Pal]I[MB(4)][Tyr(OMe)]VW-NH2
modifications: staple 2-9; not fully specified; printed as Ac-A-R8-I-L-D-A-2pyr-I-MB-MeY-V-W-NH2
B16: FP0567c Isomer 1 (peptide)
peptide: Ac-A[R8]ILDA[2Pal]I[MB(6)][Nva]VW-NH2
modifications: staple 2-9; not fully specified; printed as Ac-A-R8-I-L-D-A-2pyr-I-MB-Nva-V-W-NH2
B17: FP0576c Isomer 1 (peptide)
peptide: Ac-A[R8]ILDA[2Pal]I[MB(4)][Phe(4-F)]VW-NH2
modifications: staple 2-9; not fully specified; printed as Ac-A-R8-I-L-D-A-2pyr-I-MB-4FF-V-W-NH2
B18: FP0569c Isomer 1 (peptide)
peptide: Ac-A[R8]ILDA[2Pal]I[MB(6)][Ala(2-furyl)]VW-NH2
modifications: staple 2-9; not fully specified; printed as Ac-A-R8-I-L-D-A-2pyr-I-MB-fur-V-W-NH2
B19: FP0571c Isomer 2 (peptide)
peptide: Ac-A[R8]ILDA[2Pal]I[MB(6)][2Thi]VW-NH2
modifications: staple 2-9; not fully specified; printed as Ac-A-R8-I-L-D-A-2pyr-I-MB-thi-V-W-NH2
B20: FP0576c Isomer 2 (peptide)
peptide: Ac-A[R8]ILDA[2Pal]I[MB(4)][Phe(4-F)]VW-NH2
modifications: staple 2-9; not fully specified; printed as Ac-A-R8-I-L-D-A-2pyr-I-MB-4FF-V-W-NH2
B21: FP0568c Isomer 2 (peptide)
peptide: Ac-A[R8]ILDA[2Pal]I[MB(6)][Tle]VW-NH2
modifications: staple 2-9; not fully specified; printed as Ac-A-R8-I-L-D-A-2pyr-I-MB-tLeu-V-W-NH2
B22: FP0570c Isomer 1 (peptide)
peptide: Ac-A[R8]ILDA[2Pal]I[MB(6)][Aib]VW-NH2
modifications: staple 2-9; not fully specified; printed as Ac-A-R8-I-L-D-A-2pyr-I-MB-Aib-V-W-NH2
B23: FP0365c Isomer 1 (peptide)
peptide: AXILDAHIXAVW
modifications: not fully specified; Ac-A-R8-I-L-D-A-H-I-MB-1NapA-V-W-NH2; carbamate staple R8/MB
B24: FP0365c Isomer 2 (peptide)
peptide: AXILDAHIXAVW
modifications: not fully specified; Ac-A-R8-I-L-D-A-H-I-MB-1NapA-V-W-NH2; carbamate staple R8/MB

In one assay the target is T1, full-length beta-catenin. The assay is described as follows: competition FP; NB = no binding detected. On the procedure:
(§1) In some embodiments, a competition fluorescence polarization assay is used to assess binding of provided compounds to beta-catenin. In an exemplary procedure, solutions of provided compounds, e.g., provided stapled peptides, were prepared in a buffer (e.g., 50 mM Tris pH 8.0, 250 mM NaCl, 2% glycerol, 0.5 mM EDTA, 0.02% w/v sodium azide) using a 3-fold serial dilution from 5 µM. Probe solution (15 nM full-length ß-Catenin, 20 nM FITC labeled peptide in buffer) was prepared and incubated for a period of time, e.g., 5 minutes, and the a volume, e.g., 40 µL per well plated in suitable plate, e.g., a black polystyrene 384-well plate (Corning). Equal volume of the serial diluted peptide was added to the plate and incubated protected from light for 15 minutes prior to read. Reads were performed on a Spectramax M5 (Molecular Devices) in duplicate. Suitable probe was FITC-PEG1-PQ-S5-ILD-S5-HVRRVWR (SEQ ID NO: 1) (hydrocarbon staple formed by two S5 via olefin metathesis) and/or FITC-bA-PQ-S5-ILD-S5-HVRRVWR (SEQ ID NO: 3) (hydrocarbon staple formed by two S5 via olefin metathesis). […] Another peptide, FPO217c (Ac-AR_8ILDAHIM$B5$RVW (SEQ ID NO: 280), with N-terminal proline removed and valine replaced with isoleucine compared to FP0025c) was prepared.
As to B1, the binding result is given as “no binding”.

With B2, the binding result is listed as “no binding”.

Regarding B3, the binding result is given as “no binding”.

As to B4, the binding result is recorded as “no binding”.

Regarding B5, the binding result is on record as “no binding”.

As for B6, the binding result is listed as “no binding”.

B7: the binding result is on record as “no binding”.

Take B8: the binding result is given as “no binding”.

With B9, the binding result was “no binding”.

For B10, the binding result is on record as “no binding”.

In the case of B11, the binding result is reported as “no binding”.

Take B12: the binding result is recorded as “no binding”.

For B13, the binding result is given as “no binding”.

In the case of B14, the binding result is listed as “no binding”.

As to B15, the binding result is on record as “no binding”.

Consider B16, for which the binding result is reported as “no binding”.

Turning to B17, the binding result is “no binding”.

Turning to B18, the binding result is on record as “no binding”.

As for B19, the binding result is listed as “no binding”.

B20: the binding result is reported as “no binding”.

As to B21, the binding result was “no binding”.

On to B22, for which the binding result is “no binding”.

In a further assay the target is T1, full-length beta-catenin. The assay is described as follows: competition FP, grade of FP EC50 (+: 500-5000 nM). The procedure:
as §1
Consider B23, for which the “FP EC50” value was 500 to 5000 nM.

For AXILAAHIXRVW (not fully specified; Ac-A-R8-I-L-A-A-H-I-MB-R-V-W-NH2; carbamate staple R8/MB) [FP0407c], the “FP EC50” value lay in the range of 500 to 5000 nM.

As to Ac-A[R8]ILDA[4Pal]I[MB(13)]RVW-NH2 (staple 2-9) [FP0538c], the “FP EC50” value fell in the range of 500 to 5000 nM.

AXALDAHIXRVW (not fully specified; Ac-A-R8-A-L-D-A-H-I-MB-R-V-W-NH2; carbamate staple R8/MB) [FP0405c]: the “FP EC50” value lay within 500 to 5000 nM.

As for B24, the “FP EC50” value was in the range of 500 to 5000 nM.
